Experiment [1] concerns the target recombinant human CD40 (human) (UniProt P25942). As to the kind of experiment: SPR. In general terms: Surface plasmon resonance follows binding to a sensor surface in real time, without labels.
For a further experiment, the target named is FcγR-Ia (Homo sapiens, UniProt P12314). Put plainly: SPR.
For the next experiment, the system named is tumors. As to the kind of experiment: Mouse tumor model, SIRPα-Fc-OX40L and checkpoint antibodies (Example 14).
Experiment [2] relates to macrophages co-cultured with Toledo lymphoma cells. As to the kind of experiment: qRT-PCR of macrophages sorted from Toledo lymphoma co-cultures. In kind it is cell-based, human. As to conditions: qRT-PCR on macrophages isolated by FACS from Toledo co-cultures. The protocol:
FIG. 8D: Macrophage:Toledo lymphoma co-cultures were harvested 2 hours into phagocytosis assays in the presence of rituximab ([…]), SIRPα-Fc-CD40L ([…]), or the combination of both agents. Macrophages were isolated by CD11b+FACS, RNA was prepared, cDNA synthesized, and gene expression (IFNa1, IFNb1, CD80, and CD86) assessed by qRT-PCR. Fold change was calculated using DDCT and values obtained from the housekeeping gene ACTB, and the corresponding values from untreated samples. […] After 2 hours, co-cultures were isolated from tissue culture vessels and were stained with a fluorescently conjugated CD11b antibody to discriminate macrophages. Cells were then assessed by flow cytometry for the co-localization of fluorescent signal from both cells types. […] After 24-hours type I interferon induced luminescence was assessed using a luminometer. The maximum luminescence (RLU) from each experiment was set to 1, and all other samples were normalized accordingly. […]
RNA was prepared from macrophages isolated using fluorescent activated cell sorting (FACS) from SIRPα-Fc-CD40L/Rituximab treated co-cultures macrophages and Toledo lymphoma cells. The RNA was assessed by gRT-PCR for expression of IFNα1 and IFNβ1, and the macrophage activation markers CD80 and CD86.
In general terms: In qPCR the cycle at which signal appears reflects the starting amount.

Another experiment concerns the target T1, recombinant mouse CD40 (mouse, UniProt P27512 20-193, limits assumed).
T1 construct: also called murine CD40
As to the kind of experiment: dual ELISA: coat mCD47-Fc, titrated mSIRPα-Fc-CD40L, detect mCD40-His, tertiary anti-his-HRP, OD450. This is the same curve as the CD47 row. mCD40-His is the detecting receptor. Background: An ELISA detects its analyte on a solid surface through an enzyme-linked reagent.

In a further experiment the target is T2, recombinant mouse CD47 (mouse, UniProt Q61735 19-140, limits assumed).
T2 construct: also called murine CD47
T2 sequence (looked up): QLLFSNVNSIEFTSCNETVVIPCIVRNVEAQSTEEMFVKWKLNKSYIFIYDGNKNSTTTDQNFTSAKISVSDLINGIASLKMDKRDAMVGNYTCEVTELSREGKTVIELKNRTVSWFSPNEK
As to the kind of experiment: dual ELISA: coat mCD47-Fc, titrated mSIRPα-Fc-CD40L, detect mCD40-His, tertiary anti-his-HRP, OD450. Signal needs both CD47 and CD40 to be bound.

Where “and” joins values, the source holds several entries; their conditions need not be identical. Equal entries are not always repeated.

This is an account of results in US20200071380A1, “COMBINATION THERAPIES COMPRISING SIRP ALPHA-BASED CHIMERIC PROTEINS” (Shattuck Labs, Inc., priority 2018, published 2020).

As usually defined, the Kd is the concentration at which binding is half-saturated. The term koff denotes the rate constant with which the complex falls apart. A word on the kon: it is the rate constant with which the complex forms. By EC50 is commonly meant the concentration giving half of the maximal effect.

Chain of FcγR-Ia (P12314 16-288 limits assumed): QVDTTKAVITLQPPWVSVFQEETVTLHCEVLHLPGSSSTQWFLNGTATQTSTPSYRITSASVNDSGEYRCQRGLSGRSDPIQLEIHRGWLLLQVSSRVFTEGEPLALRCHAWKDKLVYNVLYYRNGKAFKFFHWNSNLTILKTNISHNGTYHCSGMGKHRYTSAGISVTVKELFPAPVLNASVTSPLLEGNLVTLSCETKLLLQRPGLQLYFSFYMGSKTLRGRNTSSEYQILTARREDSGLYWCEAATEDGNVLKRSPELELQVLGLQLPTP
Chain of recombinant human CD40 (human) (P25942 21-193 limits assumed): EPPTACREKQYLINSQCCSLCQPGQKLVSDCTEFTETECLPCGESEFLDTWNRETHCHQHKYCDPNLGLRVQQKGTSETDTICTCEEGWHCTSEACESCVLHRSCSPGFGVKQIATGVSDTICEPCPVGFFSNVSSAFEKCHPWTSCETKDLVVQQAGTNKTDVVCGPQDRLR
T1 sequence (P27512 20-193 limits assumed): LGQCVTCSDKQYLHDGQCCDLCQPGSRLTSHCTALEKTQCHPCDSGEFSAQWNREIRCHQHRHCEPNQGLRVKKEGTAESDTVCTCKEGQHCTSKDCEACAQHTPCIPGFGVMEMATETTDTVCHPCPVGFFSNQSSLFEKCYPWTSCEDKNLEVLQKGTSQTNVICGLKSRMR

Consider Fc-CD40L (Fc fusion), for which, in experiment [1], the dissociation constant (Kd) turned out to be 1.15 nM, the koff came out at 0.000351 s⁻¹ and the kon worked out at 304000 M⁻¹ s⁻¹.

In the experiment with FcγR-Ia, IgG1 (antibody) showed a Kd of 8.42 nM, a koff of 0.000156 s⁻¹ and a kon of 18400 M⁻¹ s⁻¹.

Consider “SIRPα(CD172a)-Fc-OX40L: Chimeric protein: ECD of SIRPα and ECD of OX40L fused via an antibody Fc domain (human sequence SEQ ID NO: 61)”, for which the tumor size result with tumors (mouse, in vivo) is recorded as “effective in reducing tumor size”. Moreover, the survival result in the experiment on tumors (sixteenth day following treatment) is “had any survivors by the sixteenth day following treatment”.

“rituximab: anti-CD20 antibody [reference compound]”: in experiment [2], the “macrophage activation (CD80, CD86) and expression of type I interferon genes (IFNα1, IFNβ1)” value is “induced macrophage activation and the expression of type I interferon genes”.

B1: murine SIRPα-Fc-CD40L chimeric protein (Fc fusion)
chain: KELKVTQPEKSVSVAAGDSTVLNCTLTSLLPVGPIRWYRGVGPSRLLIYSFAGEYVPRIRNVSDTTKRNNMDFSIRISNVTPADAGIYYCVKFQKGSSEPDTEIQSGGGTEVYVLAKPSPPEVSGPADRGIPDQKVNFTCKSHGFSPRNITLKWFKDGQELHPLETTVNPSGKNVSYNISSTVRVVLNSMDVNSKVICEVAHITLDRSPLRGIANLSNFIRVSPTVKVTQQSPTSMNQVNLTCRAERFYPEDLQLIWLENGNVSRNDTPKNLTKNTDGTYNYTSLFLVNSSAHREDVVFTCQVKHDQQPAITRNHTVLGFAHSSDQGSMQTFPDNNATHNWNHRRLDKVEEEVNLHEDFVFIKKLKRCNKGEGSLSLLNCEEMRRQFEDLVKDITLNKEEKKENSFEMQRGDEDPQIAAHVVSEANSNAASVLQWAKKGYYTMKSNLVMLENGKQLTVKREGLYYVYTQVTFCSNREPSSQRPFIVGLWLKPSSGSERILLKAANTHSSSQLCEQQSVHLGGVFELQAGASVFVNVTEASQVIHRVGFSSFGLLKL
For B1, the EC50 with recombinant mouse CD40 is 7.37 nM and 8.73 nM; with recombinant mouse CD47, 7.37 nM and 8.73 nM.
